Columns and labels:
[1] = flow cytometry and immunofluorescence; details: glycan changed form; control: 231 cells
[2] = CHX (20 µM) chase, PD-L1 half-life; details: glycan changed form; control: 231 cells
[3] = western blot of extracellular vesicles; details: glycan changed form; control: 231-EVs
[4] = western blot, flow cytometry, confocal microscopy; details: glycan changed form; control: MCF7 cells

For PD-L1: 231-MGAT3 (MGAT3 overexpression), the expression_or_secretion [1] was “decreases” and the degradation_or_half_life [2] was “decreases”.
For “PD-L1: 231-MGAT3-EVs (MGAT3 overexpression)”, the expression_or_secretion [3] was “decreases”.
For PD-L1: MCF7-shM3 (MGAT3 shRNA), the expression_or_secretion [4] was “increases”.
